The record followed here is article PMC6491591 (2019).

To fix the notation:
B1: Gonadotropin Regulated Testicular Helicase (GRTH/DDX25), wild type, V5-His tagged [human] / Protein Kinase A catalytic subunit alpha (PKA-Cα), overexpressed [not stated] (parent complex)
chain 1: MASLLWGGDAGAAESERLNSHFSNLSQPRKNLWGIKSTAVRNIDGSINNINEDDEEDVVDLAANSLLNKLIHQSLVESSHRVEVLQKDPSSPLYSVKTFEELRLKEELLKGIYAMGFNRPSKIQEMALPMMLAHPPQNLIAQSQSGTGKTAAFVLAMLSRVNALELFPQCLCLAPTYELALQTGRVVEQMGKFCVDVQVMYAIRGNRIPRGTDITKQIIIGTPGTVLDWCFKLKLIDLTKIRVFVLDEADVMIDTQGFSDHSIRIQRALPSECQMLLFSATFEDSVWHFAERIIPDPNVIKLRKEELTLNNIRQYYVLCEHRKDKYQALCNIYGSITIGQAIIFCQTRRNAKWLTVEMIQDGHQVSLLSGELTVEQRASIIQRFRDGKEKVLITTNVCARGIDVKQVTIVVNFDLPVKQGEEPDYETYLHRIGRTGRFGKKGLAFNMIEVDELPSLMKIQDHFNSSIKQLNAEDMDEIEKIDY
chain 2: not shown

Variants of B1 are the subject of one test. As to the kind of experiment: co-immunoprecipitation (IP: V5 antibody), western blot band intensity quantified with ImageJ; COS-1 cells co-transfected with GRTH-V5 and PKA-Cα; read off a plot. On the technique in general: In western blotting, separated proteins are transferred to a membrane and probed.
As for chain 1 E165A, chain 1 K240A, the response was about 1 Arbitrary units.
In the case of chain 1 T239A, the response is about 1.3 Arbitrary units.
Still for that read-out and setting: for chain 1 E165A the value was about 1.2 Arbitrary units.

In the next test the parent is B1. In words: co-immunoprecipitation (IP: PKA-Cα antibody), western blot band intensity quantified with ImageJ; COS-1 cells co-transfected with GRTH-V5 and PKA-Cα; read off a plot.
With chain 1 E165A, chain 1 K240A, the response is about 1.2 Arbitrary units.
In the case of chain 1 T239A, the response was about 1.2 Arbitrary units.
In the case of chain 1 E165A, the response was about 1.2 Arbitrary units.
